The source of these data is US20250032576A1, “CNP Therapy” (BIOMARIN PHARMACEUTICAL INC., priority 2021, published 2025).

“And” between values parts separate entries of the source, which are not always exact repeats. Identical values can stand only once. No end group written: not given here.

The term half-life denotes the time needed for the level to fall by half in the phase considered. High values mean slow decline, low ones rapid decline. One may read the Tmax as the time from dosing to the highest level. By Cmax is commonly meant the peak of the concentration-time curve. What is called AUC(0-t) is the area under the concentration-time curve up to a stated or last time point. Low values mean low exposure, high ones high exposure.

Series [1] concerns children aged 3 to 60 months. Details: species or system human. The settings on record: in vivo, sc. The source says:
See also PCT Application No. PCT/US22/73605.

Series [2] can be described thus: clinical. To be noted: human, in vivo. The source says:
Studies from rodent pups, growing lambs and children support the view that circulating levels of CNP products in plasma (CNP and NTproCNP) are sourced largely from growth plate or closely related tissues (Espiner 2018, supra). Measurement of any possible impact on endogenous proCNP production of administered CNP 1-37 Pro Gly (which strongly cross-reacts with CNP but not NTproCNP assay) is therefore only feasible using plasma concentrations of NTproCNP adjusted for age and sex (SDS). […] It is instructive to compare these dynamic changes in CNP with those found in short non Ach children of similar age starting daily doses of Human Growth Hormone (HGH) (Olney, et al. Clin Endocrinol (Oxf) 85:561-568, 2016). In that setting, similar inflections in AGV were associated with increase in NTproCNP (mean 11 pmol/L, delta 22% at day 21) in contrast to the concurrent fall of NTproCNP (approximately 6 pmol/L, range 3-11 pmol/L, delta-12%) at Day 29 during 15-30 μg/kg/d Vosoritide treatment in Cohorts 3 and 4. […] These kinetic responses could relate to the estimated times (approximately 20-22 days) (Sansone et al., J Pediatr Orthop 29:61-67, 2009) for recruited chondrocytes to traverse the respective zones of the expanding growth plate and populate the primary spongiosa.
This temporal constraint may relate to the early growth spurt observed in many of the children studied. […]

Series [3] in a line: clinical. To be noted: human, in vivo; for Tmax: Median [range] Tmax; for Cmax: Mean (SD) Cmax.
Protocol: (§1) In an ongoing Phase II study of CNP therapy in children, a group of patients age 3 to 6 months (cohort 3) were administered CNP (BMN111) at a dose of 30 μg/kg daily subcutaneously, and changes in annualized growth volume, changes in height, and skull morphology were measured.
The conditions of series [4]: human, in vivo.
Protocol: as §1
In series [5] the test system is mouse model of Cardiofaciocutaneous syndrome using a Braf mutation (p.Q241R). To be noted: in vivo; cited from earlier work.
For series [6], the system named is mice deficient in Nf1 in type II collagen producing cells. To be noted: daily injections; cited from earlier work.
Series [7] addresses NPR2 variant Gly209Val (human) (UniProt P20594). Kind of series: cell-based or functional assay.
Series [8] concerns the target NPR2 variant Arg562Gln (human) (UniProt P20594). The experiment in a line: cell-based or functional assay.
Series [9] has as its target NPR2 variant Val965Asp (human) (UniProt P20594). The experiment in a line: cell-based or functional assay.
In series [10] the target is NPR2 variant Arg776Trp (human) (UniProt P20594). The experiment in a line: cell-based or functional assay.
Series [11] has as its target NPR2 variant HIS508Asp (human) (UniProt P20594). The experiment in a line: cell-based or functional assay.
For series [12], the target named is NPR2 variant Ala48Ser (human) (UniProt P20594). The experiment in a line: cell-based or functional assay.
The target of series [13] is NPR2 variant Lys480Asn (human) (UniProt P20594). Kind of series: cell-based or functional assay.
The target in series [14] is NPR2 variant His552Arg (human) (UniProt P20594). The experiment in a line: cell-based or functional assay.
Series [15] addresses NPR2 variant Val553Leu (human) (UniProt P20594). Kind of series: cell-based or functional assay.
Series [16] concerns the target NPR2 variant Leu1009Val (human) (UniProt P20594). The experiment in a line: cell-based or functional assay.
Series [17] has as its target NPR2 variant Arg601Ser (human) (UniProt P20594). Kind of series: cell-based or functional assay.
The target of series [18] is NPR2 variant Trp42Arg (human) (UniProt P20594). The experiment in a line: cell-based or functional assay.
The target in series [19] is NPR2 variant Lys367Glu (human) (UniProt P20594). The experiment in a line: cell-based or functional assay.
For series [20], the target named is NPR2 variant Gly917Arg (human) (UniProt P20594). Kind of series: cell-based or functional assay.
The target of series [21] is NPR2 variant Lys629Arg (human) (UniProt P20594). Kind of series: cell-based or functional assay.
Series [22] deals with NPR2 variant Ala59Thr (human) (UniProt P20594). Kind of series: cell-based or functional assay.
Series [23] addresses NPR2 variant Glu727Gln (human) (UniProt P20594). Kind of series: cell-based or functional assay.
Series [24] deals with NPR2 variant Thr377Asn (human) (UniProt P20594). Kind of series: cell-based or functional assay.
The target in series [25] is NPR2 variant Glu359Ala (human) (UniProt P20594). Kind of series: cell-based or functional assay.
Series [26] deals with NPR2 variant Pro301Ser (human) (UniProt P20594). The experiment in a line: cell-based or functional assay.
Series [27] has as its target NPR2 variant Ile494Ser (human) (UniProt P20594). Kind of series: cell-based or functional assay.
The target of series [28] is NPR2 variant Lys1006Thr (human) (UniProt P20594). Kind of series: cell-based or functional assay.
Series [29] addresses NPR2 variant Ser522Pro (human) (UniProt P20594). The experiment in a line: cell-based or functional assay.
The target in series [30] is NPR2 variant Arg957Cys (human) (UniProt P20594). The experiment in a line: cell-based or functional assay.
Series [31] has as its target NPR2 variant Thr297Met (human) (UniProt P20594). Kind of series: cell-based or functional assay.
Series [32] concerns the target NPR2 variant Glu77Lys (human) (UniProt P20594). The experiment in a line: cell-based or functional assay.
Series [33] concerns the target NPR2 variant Leu956Gln (human) (UniProt P20594). The experiment in a line: cell-based or functional assay.
In series [34] the target is NPR2 variant Glu389Asp (human) (UniProt P20594). Kind of series: cell-based or functional assay.
Series [35] concerns the target NPR2 variant Gly21Arg (human) (UniProt P20594). The experiment in a line: cell-based or functional assay.
Series [36] deals with NPR2 variant Arg263His (human) (UniProt P20594). The experiment in a line: cell-based or functional assay.
Series [37] has as its target NPR2 variant Thr907Met (human) (UniProt P20594). The experiment in a line: cell-based or functional assay.

For `CC[C@H](C)[C@@H]1NC(=O)[C@H](CCCNC(=N)N)NC(=O)[C@H](CC(=O)O)NC(=O)[C@H](CC(C)C)NC(=O)[C@H](CCCCN)NC(=O)[C@H](CC(C)C)NC(=O)CNC(=O)[C@H](Cc2ccccc2)NC(=O)[C@@H](NC(=O)CNC(=O)[C@H](CCCCN)NC(=O)[C@H](CO)NC(=O)[C@H](CC(C)C)NC(=O)CNC(=O)[C@H](CCCCN)NC(=O)[C@H](CCCCN)NC(=O)[C@H](CC(N)=O)NC(=O)[C@H](C)NC(=O)CNC(=O)[C@H](CCCCN)NC(=O)[C@H](Cc2ccc(O)cc2)NC(=O)[C@H](CCCCN)NC(=O)[C@H](CCCNC(=N)N)NC(=O)[C@H](C)NC(=O)[C@H](CC(N)=O)NC(=O)[C@@H]2CCCN2C(=O)[C@H](Cc2c[nH]cn2)NC(=O)[C@H](CCC(=O)O)NC(=O)[C@H](CCC(N)=O)NC(=O)CNC(=O)[C@@H]2CCCN2)CSSC[C@@H](C(=O)O)NC(=O)CNC(=O)[C@H](CC(C)C)NC(=O)CNC(=O)[C@H](CO)NC(=O)[C@H](CCSC)NC(=O)[C@H](CO)NC(=O)CNC1=O` [Vosoritide], the overall adverse-event profile result in [1] is “generally mild”. Besides, the half-life in the series “clinical [2]” is 28 min; in “clinical [3]” (sc, 15 ug/kg, Mean (SD) t1/2) it was 21.7 min. The Tmax in the series “clinical [3]” (15 ug/kg) was 15 min; in “clinical [3]” (30 ug/kg) it was 14 min; in the series “clinical [3]” (sc, 15 ug/kg), 15 min. The Cmax was 10.1 ng/mL in “clinical [3]” (30 ug/kg); 4.43 ng/mL in “clinical [3]” (sc, 15 ug/kg); 14.5 ng/mL in the series “clinical [3]” (sc, 30 ug/kg). In “clinical [3]” (sc, 30 ug/kg, Mean (SD) AUC0-t), this compound showed an AUC(0-t) of 9.12 ng·h/mL. In series [4] (15 ug/kg), the “Median [range] Tmax” value was 15.0 [7.0, 31.0] min. In addition, the “Mean (SD) Cmax” value in series [4] (30 ug/kg) is recorded as 13,500 (6770) pg/mL. Also, in [4] (sc, 30 ug/kg), the “Mean (SD) AUC0-t” value is listed as 323,000 (129,000) pg-min/mL.

For the compound “C-type natriuretic peptide (GLSKGCFGLKLDRIGSMSGLGC; ends and bridges not checked; cysteine pairing not given here; UniProt P23582 105-126, looked up) [CNP, small, single chain peptide having a 17-amino acid loop structure at the C-terminal end]”, the body length entry in series [5] is given as “increases in body length”. For the same compound, in series [6], the ERK phosphorylation entry is reported as “decreased ERK phosphorylation” and the short stature result is recorded as “corrected the short stature”.

As for “C-type natriuretic peptide (CNP) (from UniProt P23582 105-126) (ligand)”, the average phenotype (cGMP, normalized to RedLuciferase, WT set to 1) (relative to WT = 1) in series [7] is 0.0886; in [8], 1.55 and 1.63; in [9], 0.0158; in [10], 0.0131; in series [11] it was 1.74; in series [12] it was 0.0679. Also, the average phenotype (cGMP, normalized to RedLuciferase, WT set to 1) (relative to WT = 1) worked out at 1.69 in series [13]; 1.79 in series [14]; 1.52 in series [15]; 0.0847 in [16]; 0.0595 in [17]; 0.0288 in series [18]. The average phenotype (cGMP, normalized to RedLuciferase, WT set to 1) (relative to WT = 1) was 0.0144 in [19]; 0.0171 in series [20]; 1.49 in series [21]; 3.74 in series [22]; 1.7 in series [23]; 0.0106 in series [24]. The average phenotype (cGMP, normalized to RedLuciferase, WT set to 1) (relative to WT = 1) in series [25] was 3; in series [26] it was 0.0848; in series [27] it was 0.0364; in series [28], 0.0551; in [29], 0.0567; in series [30], 0.0295 and 0.0155. The average phenotype (cGMP, normalized to RedLuciferase, WT set to 1) (relative to WT = 1) came out at 0.0302 in series [31]; 0.0499 in series [32]; 0.0243 in series [33]; 0.0708 in series [34]; 2.78 in [35]; 1.86 in series [36]. This compound also came in with an average phenotype (cGMP, normalized to RedLuciferase, WT set to 1) (relative to WT = 1) in series [37] of 0.0146.
